{"source": "paper PMC10714827", "molecules": {"B1": {"name": "PII-like protein GlnK1 with N-terminal His tag (natural protein)", "chain": "MVAMKYVIAMIRPERLDAVKRELQKIEVSRLTVSSVSGYGAQKGYMEIYRAMEYDANLLEKIKIEIAVNDEFLEPTIEAIKTGAKGSDGYVGSGKIFVLPLENVIRIRTNETGPEAI"}}, "key": {"[1]": {"biological_target": "His6-sP36 purified from homologous expression in M. mazei (Methanosarcina mazei)", "assay": "SEC; analytical gel filtration, ENrich SEC 650; 0.5 mg untagged sP36 or 0.3 mg His6-sP36; eluted with 50 mM phosphate buffer (150 mM NaCl, pH 8.0), 1 mL/min; BioRad size-exclusion standard"}, "[2]": {"biological_target": "small protein 36 (sP36), untagged, purified from heterologous expression in E. coli (Methanosarcina mazei)", "assay": "SEC; analytical gel filtration, ENrich SEC 650; 0.5 mg untagged sP36 or 0.3 mg His6-sP36; eluted with 50 mM phosphate buffer (150 mM NaCl, pH 8.0), 1 mL/min; BioRad size-exclusion standard"}, "[3]": {"biological_target": "PII-like protein GlnK1 with N-terminal His tag (Methanosarcina mazei) (UniProt Q8PYW7)", "assay": "ITC; 20 µM GlnK1 in the cell titrated with 300 µM sP36; 100 mM potassium phosphate, 2 mM EDTA, pH 7.0, 25°C; model for a single ligand binding site"}, "[4]": {"biological_target": "small protein 36 (sP36), untagged, purified from heterologous expression in E. coli (Methanosarcina mazei)", "assay": "MST; RED-NHS-labelled untagged sP36 at 100 nM held constant (the methods say 10 nM for the AmtB1 series); AmtB1-His6 (12.5 µM to 0.38 nM) or His6-GlnK1 (7.5 µM to 0.23 nM) in 16 dilutions; concentrations on monomeric mass; standard capillaries, 100% excitation power, medium or high MST power; three biological replicates"}, "[5]": {"biological_target": "small protein 36 (sP36), untagged, purified from heterologous expression in E. coli (Methanosarcina mazei)", "assay": "MST; RED-NHS-labelled untagged sP36 at 100 nM held constant (the methods say 10 nM for the AmtB1 series); AmtB1-His6 (12.5 µM to 0.38 nM) or His6-GlnK1 (7.5 µM to 0.23 nM) in 16 dilutions; concentrations on monomeric mass; standard capillaries, 100% excitation power, medium or high MST power; three biological replicates", "remark": "listed apart in the source"}}, "note": "Where two headings read alike, the source gives them in different places.", "data": [{"molecule": "His6-sP36 purified from homologous expression in M. mazei (natural protein)", "values": [{"measurement": "stoichiometry N", "setting": "[1]", "value": 6}]}, {"molecule": "small protein 36 (sP36), untagged, purified from heterologous expression in E. coli (natural protein)", "values": [{"measurement": "stoichiometry N", "setting": "[2]", "value": 6}, {"measurement": "Kd", "setting": "[3]", "value": 5400, "unit": "nM"}, {"measurement": "stoichiometry N (sP36 monomers per GlnK1 monomer)", "setting": "[3]", "value": 2}]}, {"molecule": "ammonium transporter AmtB1 with C-terminal His6-tag (from UniProt Q8U4U2 1-397) (natural protein)", "values": [{"measurement": "Kd", "setting": "[4]", "value": 260, "unit": "nM"}]}, {"molecule": "B1", "values": [{"measurement": "Kd", "setting": "[5]", "value": 1800, "unit": "nM"}]}]}
